The FLAb antibody collection

Assay: patients with anti-drug antibodies; higher = more immunogenic

Protein	patients with anti-drug antibodies
unnamed (protein) chain 1: QVQLVQSGAEVKKPGASVKVSCKVSGYTFTSYDINWVRQAPGKGLEWMGWIYPGDGSIKYNEKFKGRVTMTVDKSTDTAYMELSSLRSEDTAVYYCARRGEYGNYEGAMDYWGQGTLVTVSS chain 2: DIQMTQSPSSLSASVGDRVTITCKASQSVDYDGHSYMNWYQQKPGKAPKLLIYAASNLESGVPSRFSGSGSGTDFTLTISSLQPEDFATYYCQQSDENPLTFGGGTKVEIK	0.9%
unnamed (protein) chain 1: QVQLVQPGAEVVKPGASVKLSCKTSGYTFTSNWMHWVKQAPGQGLEWIGEIDPSDSYTNYNQNFQGKAKLTVDKSTSTAYMEVSSLRSDDTAVYYCARGSNPYYYAMDYWGQGTSVTVSS chain 2: EIVLTQSPAIMSASPGERVTMTCSASSGVNYMHWYQQKPGTSPRRWIYDTSKLASGVPARFSGSGSGTDYSLTISSMEPEDAATYYCHQRGSYTFGGGTKLEIK	33%
unnamed (protein) chain 1: QVQLVQSGAEVKKPGASVKVSCKASGYTFTRYGISWVRQAPGQGLEWMGWISTYSGNTNYAQKLQGRVTMTTDTSTSTAYMELRSLRSDDTAVYYCARRQLYFDYWGQGTLVTVSS chain 2: EIVMTQSPATLSVSPGERATLSCRASQSVSSNLAWFQQKPGQAPRPLIYDASTRATGVPARFSGSGSGTDFTLTISSLQSEDFAVYYCQQYDNWPLTFGGGTKVEIK	3%
unnamed (protein) chain 1: QVQLQESGPGLVKPSQTLSLTCTVSGGSISSGDYFWSWIRQLPGKGLEWIGHIHNSGTTYYNPSLKSRVTISVDTSKKQFSLRLSSVTAADTAVYYCARDRGGDYYYGMDVWGQGTTVTVSS chain 2: EIVLTQSPGTLSLSPGERATLSCRASQGISRSYLAWYQQKPGQAPSLLIYGASSRATGIPDRFSGSGSGTDFTLTISRLEPEDFAVYYCQQFGSSPWTFGQGTKVEIK	0%
unnamed (protein) chain 1: QVQLQQSGAEVKKPGASVKVSCEASGYTFPSYVLHWVKQAPGQGLEWIGYINPYNDGTQYNEKFKGKATLTRDTSINTAYMELSRLRSDDTAVYYCARGFGGSYGFAYWGQGTLVTVSS chain 2: DIQLTQSPSSLSASVGDRVTMTCSASSSVSSSYLYWYQQKPGKAPKLWIYSTSNLASGVPARFSGSGSGTDFTLTISSLQPEDSASYFCHQWNRYPYTFGGGTRLEIK	10%
unnamed (protein) chain 1: EVTLRESGPGLVKPTQTLTLTCTLYGFSLSTSDMGVDWIRQPPGKGLEWLAHIWWDDVKRYNPALKSRLTISKDTSKNQVVLKLTSVDPVDTATYYCARTVSSGYIYYAMDYWGQGTLVTVSS chain 2: DIQMTQSPSSLSASVGDRVTISCRASQDIRNYLNWYQQKPGKAPKLLIFYTSKLHSGVPSRFSGSGSGTDYTLTISSLQPEDIATYYCQQGNTLPLTFGGGTKVEIK	3%
unnamed (protein) chain 1: EVQLVESGGGLVKPGGSLRLSCAASGFTFSNYAMSWVRQTPEKRLEWVATISRSGSYSYFPDSVQGRFTISRDNAKNSLYLQMNSLRAEDTAVYYCARLGGYDEGDAMDSWGQGTTVTVSS chain 2: DIVMTQTPLSLSVTPGQPASISCKSSQSLLESDGKTYLNWYLQKPGQSPQLLIYLVSILDSGVPDRFSGSGSGTDFTLKISRVEAEDVGVYYCLQATHFPQTFGGGTKVEIK	17%
unnamed (protein) chain 1: EVQLVESGGGLVQPGGSLRLSCAASGFSLSNYYVTWVRQAPGKGLEWVGIIYGSDETAYATSAIGRFTISRDNSKNTLYLQMNSLRAEDTAVYYCARDDSSDWDAKFNLWGQGTLVTVSS chain 2: AIQMTQSPSSLSASVGDRVTITCQASQSINNELSWYQQKPGKAPKLLIYRASTLASGVPSRFSGSGSGTDFTLTISSLQPDDFATYYCQQGYSLRNIDNAFGGGTKVEIK	1.8%
unnamed (protein) chain 1: EVQLVESGGGLVEPGGSLRLSCAVSGFDFEKAWMSWVRQAPGQGLQWVARIKSTADGGTTSYAAPVEGRFIISRDDSRNMLYLQMNSLKTEDTAVYYCTSAHWGQGTLVTVSS chain 2: SYELTQPPSVSVSPGQTARITCSGEALPMQFAHWYQQRPGKAPVIVVYKDSERPSGVPERFSGSSSGTTATLTITGVQAEDEADYYCQSPDSTNTYEVFGGGTKLTVL	0%
unnamed (protein) chain 1: QIQLQQSGPEVVKPGASVKISCKASGYTFTDYYITWVKQKPGQGLEWIGWIYPGSGNTKYNEKFKGKATLTVDTSSSTAFMQLSSLTSEDTAVYFCANYGNYWFAYWGQGTQVTVSA chain 2: DIVLTQSPASLAVSLGQRATISCKASQSVDFDGDSYMNWYQQKPGQPPKVLIYAASNLESGIPARFSGSGSGTDFTLNIHPVEEEDAATYYCQQSNEDPWTFGGGTKLEIK	35%
unnamed (protein) chain 1: EVQLVESGGGLVQPGGSLRLSCAASGYSFTGYYIHWVRQAPGKGLEWVARVIPNAGGTSYNQKFKGRFTLSVDNSKNTAYLQMNSLRAEDTAVYYCAREGIYWWGQGTLVTVSS chain 2: DIQMTQSPSSLSASVGDRVTITCRSSQSLVHSNGNTFLHWYQQKPGKAPKLLIYTVSNRFSGVPSRFSGSGSGTDFTLTISSLQPEDFATYFCSQTTHVPWTFGQGTKVEIK	0%
unnamed (protein) chain 1: EVQLVESGGGLVQPGGSLRLSCAASGYVFTDYGMNWVRQAPGKGLEWMGWINTYIGEPIYADSVKGRFTFSLDTSKSTAYLQMNSLRAEDTAVYYCARGYRSYAMDYWGQGTLVTVSS chain 2: DIQMTQSPSSLSASVGDRVTITCKASQNVGTNVAWYQQKPGKAPKALIYSASFLYSGVPYRFSGSGSGTDFTLTISSLQPEDFATYYCQQYNIYPLTFGQGTKVEIK	8%
unnamed (protein) chain 1: QVQLVESGGGVVQPGRSLRLSCAASGFTFSVYGMNWVRQAPGKGLEWVAIIWYDGDNQYYADSVKGRFTISRDNSKNTLYLQMNGLRAEDTAVYYCARDLRTGPFDYWGQGTLVTVSS chain 2: EIVLTQSPDFQSVTPKEKVTITCRASQSIGSSLHWYQQKPDQSPKLLIKYASQSFSGVPSRFSGSGSGTDFTLTINSLEAEDAAAYYCHQSSSLPFTFGPGTKVDIK	0%
unnamed (protein) chain 1: EVQLVESGGGLVQPGGSLRLSCAASGFTFSSYGMSWVRQAPGKGLELVASINSNGGSTYYPDSVKGRFTISRDNAKNSLYLQMNSLRAEDTAVYYCASGDYWGQGTTVTVSS chain 2: DIVMTQSPLSLPVTPGEPASISCRSSQSLVYSNGDTYLHWYLQKPGQSPQLLIYKVSNRFSGVPDRFSGSGSGTDFTLKISRVEAEDVGVYYCSQSTHVPWTFGQGTKVEIK	0%
unnamed (protein) chain 1: QVQLQESGPGLVKPSETLSLTCTVSGYSITGGYLWNWIRQPPGKGLEWIGYISYDGTNNYKPSLKDRVTISRDTSKNQFSLKLSSVTAADTAVYYCARYGRVFFDYWGQGTLVTVSS chain 2: DIVMTQSPLSLPVTPGEPASISCRSSQSIVHSNGNTYLQWYLQKPGQSPQLLIYKVSNRLYGVPDRFSGSGSGTDFTLKISRVEAEDVGVYYCFQGSHVPWTFGQGTKVEIK	0%
unnamed (protein) chain 1: EVQLLESGGVLVQPGGSLRLSCAASGFTFSNFGMTWVRQAPGKGLEWVSGISGGGRDTYFADSVKGRFTISRDNSKNTLYLQMNSLKGEDTAVYYCVKWGNIYFDYWGQGTLVTVSS chain 2: DIQMTQSPSSLSASVGDSITITCRASLSINTFLNWYQQKPGKAPNLLIYAASSLHGGVPSRFSGSGSGTDFTLTIRTLQPEDFATYYCQQSSNTPFTFGPGTVVDFR	1.3%
unnamed (protein) chain 1: QVQLVQSGAEVKKPGASVKVSCKVSGYTLSDLSIHWVRQAPGKGLEWMGGFDPQDGETIYAQKFQGRVTMTEDTSTDTAYMELSSLKSEDTAVYYCATGSSSSWFDPWGQGTLVTVSS chain 2: DIQMTQSPSSVSASVGDRVTITCRASQGISSWLAWYQQKPGKAPKLLIYGASNLESGVPSRFSGSGSGTDFTLTISSLQPEDFANYYCQQANSFPWTFGQGTKVEIK	0.4%
unnamed (protein) chain 1: QVQLVQSGAEVKKPGSSVKVSCKASGYTFTSYRMHWVRQAPGQGLEWIGYINPSTGYTEYNQKFKDKATITADESTNTAYMELSSLRSEDTAVYYCARGGGVFDYWGQGTLVTVSS chain 2: DIQMTQSPSTLSASVGDRVTITCSASSSISYMHWYQQKPGKAPKLLIYTTSNLASGVPARFSGSGSGTEFTLTISSLQPDDFATYYCHQRSTYPLTFGQGTKVEVK	19%
unnamed (protein) chain 1: QVQLVQSGAEVKKPGASVKVSCKASGYTFTNHYMHWVRQAPGQGLEWMGIINPISGSTSNAQKFQGRVTMTRDTSTSTVYMELSSLRSEDTAVYYCARDIVDAFDFWGQGTMVTVSS chain 2: AIQLTQSPSSLSASVGDRVTITCRASQGISSALVWYQQKPGKAPKLLIYDASSLESGVPSRFSGSGSGTDFTLTISSLQPEDFATYYCQQFNDYFTFGPGTKVDIK	5%
